Assay results published in patent US20250034594A1, “RNA-GUIDED GENOME RECOMBINEERING AT KILOBASE SCALE” (THE BOARD OF TRUSTEES OF THE LELAND STANFORD JUNIOR …, priority 2021, published 2025).

Experiments:
Format in all cases: cell-based
[1] = system: gene editing with dCas9; assay: Screen of 322 new SSAP proteins, gene editing activity with dCas9 (Table 5); design: dCas9 with SSAP activity: scale not given here
In short: (§1)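 The 322 SSAP proteins were found in sequence data and then synthesized. Each was screened for gene editing activity when paired with Cas9 and with dCas9.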

[2] = system: gene editing with Cas9 and dCas9; assay: Screen of 322 new SSAP proteins, activity across all experiments (Cas9 and dCas9, Table 5); design: scale not given here
In short: as §1

[3] = system: gene editing with Cas9; assay: Screen of 322 new SSAP proteins, gene editing activity with Cas9 (Table 5); design: Cas9 with SSAP activity: scale not given here
In short: as §1

B1: SSAP_136: SEQ ID NO: 305; Corynebacterium striatum (protein, listed as Corynebacterium striatum)
chain: GTNLEQRMAANNAPAKQNRPVTLADQIRSMESQFQLAMPKGMEAQQLVRDALTCLRQTPKLAECTPQSVLGGLMTCSQLGLRPGVLGHAYLLPFWDRKQGGMVAQLVVGYRGLVELAHRSGQIQSLIARTVYENDHFDVDYGLDDKLVHKPCMNGPKGNPIAYYAVAKFTTGGHSFIVMSKDEMLAYRDEFAKAKNKQGEVFGPWADNFDAMAHKTCVRQLAKWMPSSTDLDRGIAADETVRVDLSESALDYPQHVDGEVVDSKPAEDEAA
B1 was tested, and the “dCas9 with SSAP activity” value [1] was −6.395, the “dCas9 with SSAP activity (normalized)” value [1] was −0.952 and the “Activity across all experiments” value [2] was −3.495. The “Cas9 with SSAP activity” value [3] was −0.594 and the “Cas9 with SSAP activity (normalized)” value [3] was −0.262.

B2: SSAP_53: SEQ ID NO: 222 (protein)
chain: STALTTLTSQLSQRFKLDGGEELLTTLKQTAFKGQVTDAQMTALLIVANQFGLNPWTKEIYAFPDKNGGIVPVVGVDGWARIINEHPQFDGMDFEMDGEQSCTCVIYRKDRTRPIRITEYMAECKKTGGGPWQSHPRRMLRHKAMIQCARMAFGFGGISDEDDAERIREKDITPQAEVVPKALEPYPADKFEENFEQWKSLIESGRRSADDVIAKIKSRNTMTDEQETRLRACGGEEGKTYENA
For B2, the “dCas9 with SSAP activity” value [1] was 0.088, the “dCas9 with SSAP activity (normalized)” value [1] was 0.036 and the “Activity across all experiments” value [2] was −0.778. The “Cas9 with SSAP activity” value [3] was −1.644 and the “Cas9 with SSAP activity (normalized)” value [3] was −1.327.

B3: SSAP_300: SEQ ID NO: 469; Lactobacillus sp. (protein, listed as Lactobacillus sp.)
chain: NSLSGALNSRNQAGSPTSMIKNLMRSDSIKNRFDEVMGAKAPQFMASITNLVNSNQDLQHVDAMSVVASAMVAATLDLPIDPNLGYMYIVPYRGQAQPQMGYKGYIQLALRTGQYKHINALPVYDDEVKSWNPLTEELEYESSGTSHDNQTPAGYVGYFQLINGFEKTTYWTYDQINSHRQKFSKMSSKTDPTGVWKSNFDAMALKTVLRNLISKWGIMSIEMQQAFVKDERPQEFDHETGEIQDVQEVEAEEENVAPETQGSTDKKEE
With B3 the “dCas9 with SSAP activity” value [1] was −5.916, the “dCas9 with SSAP activity (normalized)” value [1] was −1.175 and the “Activity across all experiments” value [2] was −5.191. For the same molecule, the “Cas9 with SSAP activity” value [3] was −4.466 and the “Cas9 with SSAP activity (normalized)” value [3] was −0.701.

B4: SSAP_294: SEQ ID NO: 463; Parageobacillus thermoglucosidasius (protein, listed as Parageobacillus thermoglucosidasius)
chain: AKQADLKNKLANKNSTNPTAYLKNLVYAPTVQQKFKEVLKEKAAHFLTSLISLVDSSPDLQKCNPMTIIASAMKAATLELPIDKNLGYAWIVPYKNVATFQIGYKGYIQLALRTGLYRSINVIEVYEGELRKWNRLTEELDIDEGARKSDHVIGYAGYFELTNGFIKRVYWSKEDIERHRKKFAKSDFGWENNYDAMAKKTVLRNMLSKWGILSIDMQRAYVNDIDDPEQTKEVIDVEWSEIIEEANVANSPEQQEIVFEQ
With B4 the “dCas9 with SSAP activity” value [1] was −5.929, the “dCas9 with SSAP activity (normalized)” value [1] was −1.096 and the “Activity across all experiments” value [2] was −6.515. For the same molecule, the “Cas9 with SSAP activity” value [3] was −7.102 and the “Cas9 with SSAP activity (normalized)” value [3] was −2.102.

B5: SSAP_243: SEQ ID NO: 412; Nocardia puris (protein, listed as Nocardia puris)
chain: AESISSEVARQASPLAVVARYRSELAGSLPAAVRHDVDRWLMVAEMAVRRSPDLMEIVRRDQGASLMRALIECARLGHEPGSPEFYLIPRGGIVSGEESYRGIIKRILNSGEYQRVVARVVHERDRFSFDPRIDEIPDHRPAEGERGAPARAYAFAVRWDGTPSTVGEATPERIIAAKAKARGVDRKDSPWNSPTGVMYRKTAIRELASYVHTSAEPRPRPAAPTEPPAVDEVSTVYDAEVIDEVDVLDITAEPTA
B5 was tested, and the “dCas9 with SSAP activity” value [1] was −5.989, the “dCas9 with SSAP activity (normalized)” value [1] was −1.036 and the “Activity across all experiments” value [2] was −3.650. For the same molecule, the “Cas9 with SSAP activity” value [3] was −1.310 and the “Cas9 with SSAP activity (normalized)” value [3] was −0.511.

B6: SSAP_2: SEQ ID NO: 173 (protein)
chain: ATNESLKNQLTTKKETGLGSAGNTIKGLMNSPAIKKRFEEVLKQRAPQYMSSIVNLVNSDINLKKCDQMSVVASCMVAATLDLPVDKNLGYAWVVPYGNKAQFQLGYKGYVQLALRTGQYKSINVIEIHEGELIDWNPLTEELKIDFSKKESDAVIGYAGYFELLNGFKKSTYWTKEQITKHKNKFSKSDFGWKKDFDAMARKTVLRNMLSKWGILSIEMQNAYTADQGIIKNEIMETGEVKENIEYIEADFESYEDNSIEEGGANE
For B6, the “dCas9 with SSAP activity” value [1] was −6.114, the “dCas9 with SSAP activity (normalized)” value [1] was −1.204 and the “Activity across all experiments” value [2] was −6.946. For the same molecule, the “Cas9 with SSAP activity” value [3] was −7.779 and the “Cas9 with SSAP activity (normalized)” value [3] was −1.250.

B7: SSAP_228: SEQ ID NO: 397; Weissella koreensis (protein, listed as Weissella koreensis)
chain: ANELVKQLKSEKVAAQFETTAGKNAAAFASEVAISVMGNKALENASLSSVVVEATKASALGLSLLPTVGEAYLVPYKGQAQFQLGYKGLVQLAMRSGQMKSFGTVKVYEGEHPRWDKYSQELHTDGDETGEVVGYYAQFTLINGFKKADYWTKSAVEEHRSRFSKSKSGPWSTDFDAMAQKTVLKSILQYAPKSSEMTRAMASEDMNGDISEGTAKPIDITPETETPKVEEANQNQQIDTNEMVDEIKEYAKETNEAPKEQTVSAADEFFK
For B7, the “dCas9 with SSAP activity” value [1] was −5.964, the “dCas9 with SSAP activity (normalized)” value [1] was −1.008 and the “Activity across all experiments” value [2] was −5.195. The “Cas9 with SSAP activity” value [3] was −4.425 and the “Cas9 with SSAP activity (normalized)” value [3] was −0.688.

B8: SSAP_112: SEQ ID NO: 281; Bacillus sp. UNC322MFChir4.1 (protein, listed as Bacillus sp.)
chain: ATNKDVKNQLANRKENKPATPEQKVEAYMTAMAPRFAEVLPKHMSMDRMSRIALTTIRTNPKLLECSVPSLMGAVMQAVQLGLEPGLLGHCYILPYKSEATFIIGYKGMIDLARRSGHIQSIYAHAVYENDEFDYELGLHPKLTHKPSFGERGEFIGAYAVAHFKDGGHQMEFMPKSEIEKRRSRSASGNSSYSPWKSDYEEMAKKTVVRYMFKYLPISIEVQSQAQHDEVVRKDITEEPEFIEMDSIEVAEASEGDGQKEFVIEE
B8 was tested, and the “dCas9 with SSAP activity” value [1] was −6.027, the “dCas9 with SSAP activity (normalized)” value [1] was −0.986 and the “Activity across all experiments” value [2] was −3.533. The “Cas9 with SSAP activity” value [3] was −1.038 and the “Cas9 with SSAP activity (normalized)” value [3] was −0.628.

B9: SSAP_125: SEQ ID NO: 294; Lysinibacillus fusiformis (protein, listed as Lysinibacillus fusiformis)
chain: ATTNELKAKSQNQVQQNVTPEQSLNTLLKRMGPQIQRALPKHMDADRIARIALTAVRATPKLLECDQMSFVAALMQSAQLGVEPNTGLGQAYLIPYGKQVQFQLGYKGLIDLAVRSGQYKAIYAHEVYKEDEFSFAYGLHKDLVHVPSTNPEGEPIGYYAVYHLKNGGYDFVYWTRERIDKHAHEFSQAVKKGWTSPWKTNYDAMAKKTVLKEVLKYAPKSIELQKVVEADETIKTEVSEDMSDVIDVTDYSVIEDESAQEELIIEQ
In the case of B9, the “dCas9 with SSAP activity” value [1] is reported as −6.106, the “dCas9 with SSAP activity (normalized)” value [1] is reported as −1.313 and the “Activity across all experiments” value [2] is reported as −4.043. The “Cas9 with SSAP activity” value [3] was −1.981 and the “Cas9 with SSAP activity (normalized)” value [3] was −0.329.

B10: SSAP_188: SEQ ID NO: 357; Propionibacterium freudenreichii (protein, listed as Propionibacterium freudenreichii)
chain: TQQMPIKAQGEPTKELQQKAAVDRFNATLHQMQNEIARALPKHMTGDRFVRIVLTEVRKNPTLALCDPLTMFGSLLTAAALGLEPGLNGECWLVPRKNHGTLEAQLQVGYRGVVKLFWQNPAATYLDTGYVCERDEFRFAKGLNPILEHTPAEGDRGKVVRYYAVAGLNTGARVFDVFTPAQIKTLRGGKVGSNGDIPDPEHWMERKTALLQVLKLMPKSTQLAAVPAADGRAHTISDAQQIFGGVDPTTGEVLDAEPVEDGAA
With B10 the “dCas9 with SSAP activity” value [1] was −5.957, the “dCas9 with SSAP activity (normalized)” value [1] was −0.867 and the “Activity across all experiments” value [2] was −6.118. The “Cas9 with SSAP activity” value [3] was −6.279 and the “Cas9 with SSAP activity (normalized)” value [3] was −0.994.

B11: SSAP_167: SEQ ID NO: 336; Ruminococcus sp. (protein, listed as Ruminococcus sp.)
chain: GTSIQKNVENNALQKEKMPTMQAYIKKMEGEIKKALPSVMTPERFTRITLSALSTNPKLAATTPGSFLGAMMTAAQLGLEPNTPLGQAYLIPYSNKGKLECQFQIGYKGLIDLAYRSGSISVIQAHTVYENDDFEYELGLDPKLKHIPSKSADKGNPAWFYAVFKTKDGGYGFEVMSIEDIRSHAAKYSQSYNSAYSPWKTNFEEMAKKTVLKKALKYAPLKSDFVRQISTDETIKTKLSDDMFSVPAETIEVEGIEVDTETGEITEVDHA
For B11, the “dCas9 with SSAP activity” value [1] was −6.070, the “dCas9 with SSAP activity (normalized)” value [1] was −0.834 and the “Activity across all experiments” value [2] was −3.703. For the same molecule, the “Cas9 with SSAP activity” value [3] was −1.337 and the “Cas9 with SSAP activity (normalized)” value [3] was −0.698.

B12: SSAP_52: SEQ ID NO: 221 (protein)
chain: TIMDLLNDPKMKSQIQRALPNGMSAERIARIALTALRMNPQLQECSPQSFAAALMTSAQLGLEPNTPLGHAWLIPRKNHGKMEVQFELGYKGMLDLVRRSGMITAIFAEEVREKDEFEFEYGTNPYLKHKPYLGGDRGKVLFYYAVATFKDGGYAFKVMSIPEIEEARKLSQSANSPYSPWNRFYDEMAKKTVLKRLCKYLPLSIEVQRNLAQDETIRTQIEADDILDLPNENEFEVVEVEEIPGEEEKEEAKEGPFPNKALRESPTPLT
For B12, the “dCas9 with SSAP activity” value [1] was 0.163, the “dCas9 with SSAP activity (normalized)” value [1] was 0.148 and the “Activity across all experiments” value [2] was −0.190. The “Cas9 with SSAP activity” value [3] was −0.544 and the “Cas9 with SSAP activity (normalized)” value [3] was −0.573.

B13: SSAP_281: SEQ ID NO: 450; Leucobacter luti (protein, listed as Leucobacter luti)
chain: SDLSQAAVAVKKSKTVEDYLTEYEPQFQRALGKSMDAAKFSQDALTAIKQTPQLGQADLQTLFGSLFLAAQLKLPVGGPLAQFHLTPRKRGDKLEVLPIIGFGGYVQLIMNTGLYSKVGAFLIYEKDYFDEGANSERGEFYDFKKSRGDRGPVVGVIAYVKLKGFDESQYVFLDADTIRSRHRPRYWEKTPWGSDEGEMFKKTGVRVLQKLLPKSVEAAPLALAADADQATVRKVDGIEDLTIQHDVVDAEVVPDGVPV
For B13, the “dCas9 with SSAP activity” value [1] was −6.188, the “dCas9 with SSAP activity (normalized)” value [1] was −0.973 and the “Activity across all experiments” value [2] was −3.655. The “Cas9 with SSAP activity” value [3] was −1.121 and the “Cas9 with SSAP activity (normalized)” value [3] was −0.672.
